Target: T1, HLA-A2 on T2 cells (Homo sapiens, UniProt P04439, D140Y/D185E/D98H/E176V/E277Q/G131W/G231S/I119V/I121R/I166T/I218V/L300P/L318F/N151K/N90K/P208A/P217A/Q86G/Q94H/R138H/R169H/T345S)
T1 construct: T2 cell line expressing the HLA-A2 molecules; endogenous in cells; host or cells: T2 cell line (TAP-deficient), from Dr Peter Creswell, Yale University
Assay: peptide-induced MHC class 1 assembly assay (HLA-A2 binding and stabilization, FACS)
Format: cell-based
Conditions: for binding to HLA-A2 on T2 cells (shift of fluorescent peak): antibody BB7.2, FACS, FIG. 1; for order of potency by comparison of fluorescence indices: fluorescence index = mean fluorescence of peptide treated T2 cells / untreated T2 cells
Procedure: Location of the potential CTL containing motifs of the HIV-1(LAI) Rev protein has been predicted by the reported peptide-binding motif algorithms. […] The ability of the peptides containing these motifs to bind and stablize membrane-bound HLA-A2 molecule was assessed using the T2 cell line. The cell line has been well documented to have defective TAP transporter function resulting in the majority of the intracellularly generated peptides being unable to be transported into the endoplasmic reticulum to associate with the newly synthesized HLA class 1 molecules, i.e. HLA-A2 (see references 4, 5). […] Upon interaction with suitable peptides introduced exogenously, the stability of the HLA-A2 molecules can be restored.
T2 cell line expressing the HLA-A2 molecules was obtained from Dr Peter Creswell at the Howard Hughes Research Institute of Yale University. The cells were propagated in Iscove's complete medium (Iscove's medium supplemented with 10% heat-inactivated bovine serum, 120.0 units per ml of penicilin G sodium, 120 μg per ml of streptomycin sulphate, and 0.35 mg per ml of L-glutamine). The ability of individual 8 to 13 mer peptides, prepared as described in Example 1 and identified in Table 1, to bind and modulate the stability of the A2 molecules on T2 cells was determined using a peptide-induced MHC class 1 assembly assay, which was modified from a protocol described by Yuping Deng et al. (ref. 6).
In essence, 1×10^6 T2 cells were incubated with a specified concentration of the test peptide in 250.0 μl of Iscove's serum-free medium (Iscove's medium supplemented with 120.0 units per ml of penicillin G sodium, 120.0 ug per ml of streptomycin sulphate and 0.35 mg per ml of L-glutamine) in a sterile Eppendorf tube at 37° C. overnight. The cells were then incubated on ice for 30 min before 1.0 ml of Iscove's complete medium supplemented with 5.0 ug per ml of brefeldin A, 12.5 ug per ml of anisomycin and 5.0 ug per ml of cyclohexamide was added. The samples were then incubated for 3.0 hr in a 37° C. CO2 incubator.
In the presence of the drugs, further protein synthesis and intracellular delivery of HLA-A2 molecules to the cell surface are inhibited, and de-stabilization of the conformation of the membrane-bound class 1 molecules at the physiological temperature occurs.
The cells were then washed twice with ice-cold PBA (a buffer containing 0.9% sodium chloride, 0.5% bovine serum albumin and 0.02% sodium azide). 100.0 ul of PBA containing 5.0 ug of a conformation-sensitive HLA-A2-specific mouse monoclonal antibody, BB7.2 (ref. 7), was then added to each test sample. The reaction was allowed to take place on ice for 45 min. The cells were then washed three times with ice-cold PBA.
The binding of BB7.2 was then detected by adding […] containing 1.0 ug of goat anti-mouse IgG F(ab′) fluorescein (FITC) conjugate to each cell sample. After 30 min incubation on ice, the cells were washed twice with PBA, and twice again with PBS, pH 7.2. Cells were fixed immediately after washing was completed by adding 100.0 ul of 1.0% paraformaldehyde to the cell pellet. The cells were gently resuspended and were FACS analysed usually within three days after the experiments were completed.
The fluorescence index, which is an indicator for increased density of membrane-bound A2 molecules, was calculated by dividing the mean fluorescence of an experimental sample (peptide treated T2 cells) by the mean fluorescence of the control sample (T2 cells not treated with peptide).

Sequence | binding to HLA-A2 on T2 cells (shift of fluorescent peak) | order of potency by comparison of fluorescence indices
ILVESPAVL [CLP-72] | capable of binding to HLA-A2 on T2 cells | CLP-177>CLP-72>CLP-178>CLP-182
PLQLPPLERLIL [CLP-182] | capable of binding to HLA-A2 on T2 cells | CLP-177>CLP-72>CLP-178>CLP-182
YLGRSAEPV [CLP-177] | capable of binding to HLA-A2 on T2 cells | CLP-177>CLP-72>CLP-178>CLP-182
YLGRSAEPVPL [CLP-178] | capable of binding to HLA-A2 on T2 cells | CLP-177>CLP-72>CLP-178>CLP-182
